The source of these data is the Immune Epitope Database (IEDB).

Targets include HLA-A*02:01; HLA-A*02:03; HLA-A*02:02; HLA-A*02:06; HLA-A*68:02.
What all share (experiment): IEDB peptide-MHC binding, cellular MHC/competitive/fluorescence; ≥ and ≤ were set here for values at or beyond the usual limits of such assays
Setting [1] is: source organism: Vaccinia virus WR.
The mark [2] stands for this setting: source organism: Influenza A virus.

Usually IC50 stands for the point on the concentration scale where inhibition reaches its midpoint. A higher IC50 goes with weaker potency. For the sequence PLKDVERLQM, the IC50 was 45.5 µM in the assay with HLA-A*02:01 (setting [1]); 44 µM with HLA-A*02:03 (setting [1]); 6.16 µM with HLA-A*02:02 (setting [1]); 37.4 µM with HLA-A*02:06 (setting [1]); not below 70 µM with HLA-A*68:02 (setting [1]).

In the case of PLPSLEYGA, the IC50 came to 14.7 µM with HLA-A*02:01 (setting [1]); 18.9 µM in the assay with HLA-A*02:03 (setting [1]); 11.4 µM with HLA-A*02:02 (setting [1]); 42.5 µM with HLA-A*02:06 (setting [1]); 30.9 µM in the assay with HLA-A*68:02 (setting [1]).

Take PLSPDTCLLA: the concentration for half-maximal inhibition (IC50) with HLA-A*02:01 (setting [1]) turned out to be 6.97 µM; with HLA-A*02:03 (setting [1]) it was 9.31 µM; with HLA-A*02:02 (setting [1]) it was 11.2 µM; with HLA-A*02:06 (setting [1]) it was 19.9 µM; with HLA-A*68:02 (setting [1]), 15.2 µM.

Take PLTGNNTITT: the IC50 was not below 70 µM in the assay with HLA-A*02:01 (setting [1]); 29.5 µM with HLA-A*02:03 (setting [1]); 7.67 µM in the assay with HLA-A*02:02 (setting [1]); not below 70 µM with HLA-A*02:06 (setting [1]); 49.3 µM with HLA-A*68:02 (setting [1]).

Regarding PMIIGEPIIV, the IC50 with HLA-A*02:01 (setting [1]) is 26.3 µM; with HLA-A*02:03 (setting [1]), 8.84 µM; in the assay with HLA-A*02:02 (setting [1]), not below 70 µM; with HLA-A*02:06 (setting [1]) it was not below 70 µM; with HLA-A*68:02 (setting [1]) it was not below 70 µM.

PTDMLKLFT: the half-maximal inhibitory concentration (IC50) with HLA-A*02:01 (setting [1]) is not below 70 µM; with HLA-A*02:03 (setting [1]), 47 µM; with HLA-A*02:02 (setting [1]), 29.1 µM; with HLA-A*02:06 (setting [1]), 69.8 µM; in the assay with HLA-A*68:02 (setting [1]), not below 70 µM.

Consider PTEMVDVSM, for which the 50% inhibitory concentration (IC50) in the assay with HLA-A*02:01 (setting [1]) turned out to be 47.4 µM; with HLA-A*02:03 (setting [1]), 41.3 µM; with HLA-A*02:02 (setting [1]), 10.6 µM; with HLA-A*02:06 (setting [1]), 40.2 µM; with HLA-A*68:02 (setting [1]), 52.2 µM.

For PTEMVDVSMM, the concentration for half-maximal inhibition (IC50) with HLA-A*02:01 (setting [1]) is 41.9 µM; with HLA-A*02:03 (setting [1]), not below 70 µM; with HLA-A*02:02 (setting [1]), 11.5 µM; in the assay with HLA-A*02:06 (setting [1]), 12.1 µM; with HLA-A*68:02 (setting [1]), not below 70 µM.

With PTIEDDKIVT, the concentration for half-maximal inhibition (IC50) with HLA-A*02:01 (setting [1]) was not below 70 µM; with HLA-A*02:03 (setting [1]), 20.6 µM; in the assay with HLA-A*02:02 (setting [1]) it was 13.8 µM; with HLA-A*02:06 (setting [1]) it was not below 70 µM; in the assay with HLA-A*68:02 (setting [1]), not below 70 µM.

As for PTLFGRGVI, the IC50 was not below 70 µM with HLA-A*02:01 (setting [1]); 6.73 µM with HLA-A*02:03 (setting [1]); 30.3 µM with HLA-A*02:02 (setting [1]); 64.9 µM with HLA-A*02:06 (setting [1]); not below 70 µM with HLA-A*68:02 (setting [1]).

As to PTNDIPSLFI, the IC50 came out at 18.4 µM with HLA-A*02:01 (setting [1]); 61.8 µM with HLA-A*02:03 (setting [1]); 11 µM in the assay with HLA-A*02:02 (setting [1]); 14.8 µM with HLA-A*02:06 (setting [1]); 24.8 µM with HLA-A*68:02 (setting [1]).

As to PTPKKMNIVT, the IC50 in the assay with HLA-A*02:01 (setting [1]) is not below 70 µM; with HLA-A*02:03 (setting [1]) it was 55.7 µM; with HLA-A*02:02 (setting [1]), 65.8 µM; with HLA-A*02:06 (setting [1]) it was not below 70 µM; with HLA-A*68:02 (setting [1]), not below 70 µM.

For PTRTWKVLSI, the IC50 with HLA-A*02:01 (setting [1]) was not below 70 µM; with HLA-A*02:03 (setting [1]), 15.1 µM; with HLA-A*02:02 (setting [1]), 41.9 µM; in the assay with HLA-A*02:06 (setting [1]), not below 70 µM; with HLA-A*68:02 (setting [1]), 42 µM.

With PVDLVKSSFV, the IC50 is 39.3 µM with HLA-A*02:01 (setting [1]); 9.64 µM with HLA-A*02:03 (setting [1]); 6.61 µM with HLA-A*02:02 (setting [1]); 26.6 µM with HLA-A*02:06 (setting [1]); 10.8 µM with HLA-A*68:02 (setting [1]).

Turning to PVETLFGSYI, the IC50 with HLA-A*02:01 (setting [1]) is not below 70 µM; in the assay with HLA-A*02:03 (setting [1]) it was 11.8 µM; with HLA-A*02:02 (setting [1]) it was 13.7 µM; in the assay with HLA-A*02:06 (setting [1]), not below 70 µM; with HLA-A*68:02 (setting [1]) it was 7.16 µM.

With PVIVPDIKL, the half-maximal inhibitory concentration (IC50) amounted to 52.8 µM with HLA-A*02:01 (setting [1]); 32.7 µM with HLA-A*02:03 (setting [1]); 41.2 µM with HLA-A*02:02 (setting [1]); 51.4 µM with HLA-A*02:06 (setting [1]); 29.9 µM with HLA-A*68:02 (setting [1]).

For the sequence QARQMVQAMRA, the half-maximal inhibitory concentration (IC50) was not below 70 µM with HLA-A*02:01 (setting [2]); not below 70 µM with HLA-A*02:03 (setting [2]); 24.9 µM in the assay with HLA-A*02:02 (setting [2]); 55.2 µM with HLA-A*02:06 (setting [2]); 20 µM in the assay with HLA-A*68:02 (setting [2]).

For QTGINNVQSL, the IC50 in the assay with HLA-A*02:01 (setting [1]) worked out at 48.1 µM; with HLA-A*02:03 (setting [1]) it was 24.4 µM; in the assay with HLA-A*02:02 (setting [1]), 20.2 µM; with HLA-A*02:06 (setting [1]), 53.6 µM; in the assay with HLA-A*68:02 (setting [1]), 11.6 µM.

In the case of QTRSKAGLLV, the IC50 with HLA-A*02:01 (setting [2]) is not below 70 µM; with HLA-A*02:03 (setting [2]), 22 µM; with HLA-A*02:02 (setting [2]) it was not below 70 µM; in the assay with HLA-A*02:06 (setting [2]), not below 70 µM; in the assay with HLA-A*68:02 (setting [2]), 50.9 µM.

As for RAEIIRMMEGA, the IC50 with HLA-A*02:01 (setting [2]) is not below 70 µM; with HLA-A*02:03 (setting [2]), 10 µM; with HLA-A*02:02 (setting [2]) it was 11.8 µM; with HLA-A*02:06 (setting [2]) it was not below 70 µM; in the assay with HLA-A*68:02 (setting [2]), 54.7 µM.

Consider RAVKLYRKL, for which the half-maximal inhibitory concentration (IC50) in the assay with HLA-A*02:01 (setting [2]) is 53.5 µM; in the assay with HLA-A*02:03 (setting [2]), 49.9 µM; with HLA-A*02:02 (setting [2]) it was not below 70 µM; in the assay with HLA-A*02:06 (setting [2]), not below 70 µM; with HLA-A*68:02 (setting [2]), not below 70 µM.

As for RINLLVQYGA, the concentration for half-maximal inhibition (IC50) with HLA-A*02:01 (setting [1]) turned out to be 9.16 µM; with HLA-A*02:03 (setting [1]), 15.3 µM; with HLA-A*02:02 (setting [1]), 10.3 µM; with HLA-A*02:06 (setting [1]) it was 7.65 µM; in the assay with HLA-A*68:02 (setting [1]), 21 µM.

In the case of RISSSLDQT, the IC50 was 63.6 µM with HLA-A*02:01 (setting [1]); 12.8 µM with HLA-A*02:03 (setting [1]); 6.79 µM with HLA-A*02:02 (setting [1]); 27.8 µM with HLA-A*02:06 (setting [1]); 67.5 µM with HLA-A*68:02 (setting [1]).

Take RLEVIGLTT: the IC50 with HLA-A*02:01 (setting [1]) is 28.8 µM; with HLA-A*02:03 (setting [1]), 13.9 µM; with HLA-A*02:02 (setting [1]), 20 µM; with HLA-A*02:06 (setting [1]) it was not below 50 µM; with HLA-A*68:02 (setting [1]), 13.1 µM.
